Molecular target: F10_Y11delinsLN mutant human γS-crystallin (human) (UniProt P22914)
Sequence (P22914 other isoform, or with tags, fused parts or gaps mutant): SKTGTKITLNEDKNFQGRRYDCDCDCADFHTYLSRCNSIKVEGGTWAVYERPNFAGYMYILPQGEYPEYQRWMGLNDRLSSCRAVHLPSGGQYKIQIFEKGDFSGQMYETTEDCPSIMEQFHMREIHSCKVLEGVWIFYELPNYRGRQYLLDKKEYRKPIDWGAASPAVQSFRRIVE

human αA-crystallin, sequence (P02489 whole entry): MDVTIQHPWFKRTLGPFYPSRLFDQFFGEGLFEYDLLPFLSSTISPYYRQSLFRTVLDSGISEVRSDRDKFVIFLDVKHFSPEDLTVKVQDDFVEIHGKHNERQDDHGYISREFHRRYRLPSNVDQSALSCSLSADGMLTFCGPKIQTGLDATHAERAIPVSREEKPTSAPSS

particle radius by dynamic light scattering, 30 to 60 °C; 1:1 molar ratio mixture (the mutant alone: 1063 nm radius after heating to 60 °C): 13.3 nm
Substance: human αA-crystallin (from UniProt P02489 1-173) (natural protein)
